How the values were obtained:
Assay in all cases: purified protein
Type in all cases: biochemical, Chromohalobacter israelensis
[1] = substrate: C[C@H](N)CO; details: 50 mM L-glutamate, 5 mM ATP, 15 mM MgCl2, pH 7.9, 25 °C
[2] = substrate: NCCO; details: 50 mM L-glutamate, 5 mM ATP, 15 mM MgCl2, pH 7.9, 25 °C
[3] = substrate: N[C@@H](CCC(=O)O)C(=O)O; details: 20 mM ethanolamine, 5 mM ATP, 15 mM MgCl2, pH 7.9, 25 °C

B1: Csal_0679 (Chromohalobacter israelensis DSM 3043) (protein)
chain: MTNTLALDDLKTRVESGEIDTVLVCIVDMQGRLMGKRLHARHFVDHGWEETHCCNYLLATDLEMATPGGYASTSWQAGYGDYIMKPDLATLRCVPWLEGTAMVLCDLLDHRTHAEVPHAPRAILKRQLARLEAMGLEAIMATELEFFLFEKSLDEIRKGRFRDLQPISGYNEDYHIFQTTKEEHVLRPLRNHLHAAGIPVEGTKGEAGAGQEELNIRCAKALDTADYHTIAKHATKEIAWQQGRAVTFLSKWHHAHAGSSSHIHQSLWKQGLPAFHDERDALGMSALMKHYLAGLLKYAPDYTYFLAPYLNSYKRFQKGTFAPTRTVWSVDNRTAGFRLCAEGTRAVRIECRIGGSDLNPYLAMAGQLAAGIKGIEECLALPPPAEGDTYEGGSGLIPQNLRDAMEALRGSTMLREAMGEDVVDHYVRAAEVELEDFQRVVSDYEVARGFERC
With B1 the Km [1] was 100 ± 10 µM, the kcat [1] was 0.35 ± 0.01 s⁻¹ and the kcat/Km [1] was 3400 M⁻¹ s⁻¹. The Km [2] was 34 ± 4 µM, the kcat [2] was 0.38 ± 0.009 s⁻¹ and the kcat/Km [2] was 11000 M⁻¹ s⁻¹. It also gave a Km [3] of 7800 ± 1000 µM, a kcat [3] of 0.4 ± 0.02 s⁻¹ and a kcat/Km [3] of 51 M⁻¹ s⁻¹.
